# Experimental data from patent publication US20210363257A1 (Pieris, published 2021).
# What was measured:
# [1] = target: T1, human CD137 expressed on cells (human, UniProt Q07011 24-255); assay: flow cytometry, Flp-In-CHO::huCD137 cells
# T1 construct: whole, on cells; also called Flp-In-CHO::huCD137; NFκB-luc2/CD137 Jurkat cells
# Protocol: (§1) The geometric means of the fluorescence intensity were used to calculate EC₅₀ values using nonlinear regression (shared bottom, SLOPE=1).
# (§2) 5×10⁴ cells per well were incubated for 1 h in ice-cold PBS containing 5% fetal calf serum (PBS-FCS). A dilution series of the fusion proteins and control antibodies were added to the cells and incubated for 1 h on ice. Cells were washed twice with PBS and then incubated with a goat anti-hIgG Alexa647-labeled antibody for 30 min on ice. Cells were subsequently washed and analyzed using iQue Flow cytometer (Intellicyte Screener). Mean geometric fluorescent signals were plotted and fitted with Graphpad software using nonlinear regression (shared bottom, SLOPE=1).
# [2] = target: T2, cyPD-L1-His (cynomolgus PD-L1 with a C-terminal polyhistidine tag) (cynomolgus); assay: ELISA, cyPD-L1-His coated, detection anti-human IgG Fc-HRP
# T2 construct: Bought
# Protocol: (§3) Recombinant huPD-L1-His or cyPD-L1-His (human or cynomolgus PD-L1 with a C-terminal polyhistidine tag, R&D Systems or Sino Biologics) at the concentration of 1 μg/mL in PBS was coated overnight on microtiter plates at 4° C. After washing with PBS-0.05% T (PBS supplemented with 0.05% (v/v) Tween 20), the plates were blocked with 2% BSA (w/v) in PBS-0.1% T (PBS supplemented with 0.1% (v/v) Tween 20) for 1 h at room temperature. […] Bound molecules under study were detected by incubation with 1:5000 diluted anti-human IgG Fc-HRP (Jackson Laboratory) in PBS-0.1% T-2% BSA. After an additional wash step, fluorogenic HRP substrate (QuantaBlu, Thermo) was added to each well and the fluorescence intensity was detected using a fluorescence microplate reader.
# [3] = target: T3, huCD137-His (human CD137 with a C-terminal polyhistidine tag) (human, UniProt Q07011 24-186); assay: SPR (Biacore), binder captured by anti-human IgG Fc, huCD137-His in solution, 25 C, 1:1 model
# T3 construct: Bought; also called huCD137-His-Bio
# Protocol: The binding kinetics and affinity of exemplary fusion proteins to huPD-L1-His or huCD137-His (human PD-L1 or human CD137 with a C-terminal polyhistidine tag, R&D Systems) were determined by surface plasmon resonance (SPR) using a Biacore 8K or a Biacore T200 (GE Healthcare).
# The anti-human IgG Fc antibody (GE Healthcare) was immobilized on a CM5 sensor chip using standard amine chemistry: the carboxyl groups on the chip were activated using 1-ethyl-3-(3-dimethylaminopropyl)-carbodiimide (EDC) and N-hydroxysuccinimide (NHS). Subsequently, anti-human IgG Fc antibody solution (GE Healthcare) at a concentration of 25 μg/mL in 10 mM sodium acetate (pH 5.0) was applied at a flow rate of 5 μL/min until an immobilization level of 6000-10000 resonance units (RU) was achieved. Residual non-reacted NHS-esters were blocked by passing a solution of 1M ethanolamine across the surface. The reference channel was treated in an analogous manner. […] After each capture step, the needle was washed.
# Double referencing was used and the 1:1 binding model was used to fit the raw data.
# [4] = target: T4, cynomolgus PD-L1 expressed on cells (cynomolgus); assay: flow cytometry, Flp-In-CHO::cynoPDL-1 cells
# T4 construct: whole, on cells; also called Flp-In-CHO::cynoPDL-1
# Protocol: as §1, §2
# [5] = target: T5, human PD-L1 expressed on cells (human, UniProt Q9NZQ7 19-290); assay: flow cytometry, Flp-In-CHO::huPDL-1 cells
# T5 construct: whole, on cells; also called Flp-In-CHO::huPDL-1; RKO cells
# Protocol: as §1, §2
# [6] = target: T3, huCD137-His (human CD137 with a …); assay: ELISA, huCD137-His coated, detection anti-NGAL-HRP
# Protocol: as §3
# The same ELISA setup was also employed to determine the binding potency of fusion proteins to CD137, where huCD137-His (human CD137 with C-terminal polyhistidine tag, R&D Systems) or cyCD137-Fc (cynomolgus CD137 C-terminally fused to Fc) was instead coated on a microtiter plate. The testing agents were similarly titrated and bound agents were detected via anti-NGAL-HRP.
# [7] = target: T6, biotinylated huCD137-Fc (human CD137 Fc fusion) (human, UniProt Q07011 24-186, biotinylated); assay: competitive ELISA, antibody SEQ ID NOs: 28 and 29 coated (competitor), 1 nM huCD137-Fc-bio tracer, binder titrated
# T6 construct: Bought; also called huCD137-Fc-bio
# Protocol: The plates were washed five times after each incubation step with 100 μL PBS-0.05% T (PBS supplemented with 0.05% (v/v) Tween 20). The plates were blocked with 2% BSA (w/v) in PBS-0.1% T (PBS supplemented with 0.1% (v/v) Tween 20) for 1 h at room temperature and subsequently washed again. […] The mixtures of testing molecules and the tracer were added to the plates and incubated for 20 min at room temperature following by five washing steps with 100 μL PBS-0.05% T. Subsequently, a 1:5000 dilution of ExtrAvidin-HRP (Sigma-Aldrich) in PBS-0.1% T-2% BSA was added to the wells and incubated for 1 h. After an additional wash step, fluorogenic HRP substrate (QuantaBlu, Thermo) was added to each well, and the fluorescence intensity was detected using a fluorescence microplate reader.
# Competition data for an exemplary experiment are shown in FIG. 14, where the x-axis represents testing molecule concentration and the y-axis represents the measured trace molecule concentration. The data were fit to a 1:1 sigmoidal curve, where the IC₅₀ value and the maximum signal were free parameters, and the slope was fixed to unity.
# [8] = target: T7, huPD-L1-His (human PD-L1 with a C-terminal polyhistidine tag) (human, UniProt Q9NZQ7 19-239); assay: ELISA, huPD-L1-His coated, detection anti-human IgG Fc-HRP
# T7 construct: Bought; also called biotinylated huPD-L1-His
# Protocol: as §3
EC50 [1] [nM],EC50 [2] [nM],Kd [3] [nM],koff [3] [s⁻¹],kon [3] [M⁻¹ s⁻¹],EC50 [4] [nM],EC50 [5] [nM],EC50 [6] [nM],IC50 [7] [nM],EC50 [8] [nM],Binder
3.74,0.13,6.48,0.000255,39300,4.48,3.64,0.28,1.1,0.15,"fusion protein SEQ ID NOs: 90 and 87 (bispecific antibody, human IgG4 S228P, kappa, F234A L235A, Bivalent to CD137) heavy: not shown light: EIVLTQSPDTLSVTPKEKVTLTCRASQSIGTNIHWFQQKPGQSPKLLIKYASESISGVPSRFSGSGSGTDFTLTINSVEAEDAATYYCQQSNSWPYTFGQGTKLEIKRTVAAPSVFIFPPSDEQLKSGTASVVCLLNNFYPREAKVQWKVDNALQSGNSQESVTEQDSKDSTYSLSSTLTLSKADYEKHKVYACEVTHQGLSSPVTKSFNRGEC"
6.48,0.18,5.11,0.000175,34200,1.41,1.43,0.57,0.99,0.23,"fusion protein SEQ ID NOs: 86 and 91 (bispecific antibody, human IgG4 S228P, kappa, F234A L235A, Antibody-lipocalin mutein fusion, IgG4 S228P backbone; Bivalent to CD137) heavy: not shown light: EIVLTQSPDTLSVTPKEKVTLTCRASQSIGTNIHWFQQKPGQSPKLLIKYASESISGVPSRFSGSGSGTDFTLTINSVEAEDAATYYCQQSNSWPYTFGQGTKLEIKRTVAAPSVFIFPPSDEQLKSGTASVVCLLNNFYPREAKVQWKVDNALQSGNSQESVTEQDSKDSTYSLSSTLTLSKADYEKHKVYACEVTHQGLSSPVTKSFNRGECGGGGSGGGGSGGGGSQDSTSDLIPAPPLSKVPLQQNFQDNQFHGKWYVVGQAGNIRLREDKDPIKMMATIYELKEDKSYDVTMVKFDDKKCMYDIWTFVPGSQPGEFTLGKIKSFPGHTSSLVRVVSTNYNQHAMVFFKFVFQNREEFYITLYGRTKELTSELKENFIRFSKSLGLPENHIVFPVPIDQCIDG"
